Patent publication US20220040297A1 (Chugai, published 2022)
Ends that are not written are not given here.

Legend:
CD3ε homodimer protein [1] = biological target: T1, CD3ε homodimer protein (human, UniProt P07766 23-126, limits assumed); test: SPR (Biacore T200, 25°C); CD3ε homodimer immobilized on CM4, one-arm antibody as analyte
T1 construct: also called human CD3ε homodimer protein; CD3e homodimer

CD3ε homodimer protein [2] = biological target: T1, CD3ε homodimer protein; test: SPR (Biacore T200, 25°C); CD3ε homodimer immobilized on CM4, one-arm antibody as analyte; first of two CE115HA340 lines (r6, 2.0E-08); the second line (r8) gives 2.7E-08
[3] = biological target: T2, human IgA-Fc with AviTag, biotinylated (human, UniProt P01876 123-333, limits assumed, biotinylated at the C-terminal AviTag sequence); test: ECL; biotinylated hIgA, ratio to the no-antigen well
T2 construct: also called hIgA; biotinylated human IgA

[4] = biological target: T3, integrin αvβ3 (R&D Systems, Inc.) (human, UniProt P06756 31-992; P05106 27-718); test: ECL; integrin αvβ3 on plate with CD3ε homodimer protein (competitor), ratio to the integrin-free well
[5] = biological target: T2, human IgA-Fc with AviTag, biotinylated; test: ECL; biotinylated hIgA, ratio to the no-antigen well; remark: listed apart in the source
[6] = biological target: T2, human IgA-Fc with AviTag, biotinylated; test: ECL; hIgA value without against with integrin αvβ3 (competitor)
[7] = biological target: T2, human IgA-Fc with AviTag, biotinylated; test: ECL; biotinylated hIgA with CD3ε homodimer protein (competitor), ratio to the no-antigen well
[8] = biological target: T3, integrin αvβ3 (R&D Systems, Inc.); test: ECL; integrin αvβ3 value without against with CD3ε homodimer protein (competitor)
[9] = biological target: T4, biotin-labeled CD3ε peptide (also: biotin-labeled, site not given here); test: ECL; CD3 peptide as antigen, ratio to the no-antigen well
T4 construct: also called CD3 peptide; biotinylated CD3ε peptide
T4 peptide: QDGNEEMGGITQTPY

[10] = biological target: T3, integrin αvβ3 (R&D Systems, Inc.); test: ECL; integrin αvβ3 on plate, ratio to the integrin-free well
[11] = biological target: T2, human IgA-Fc with AviTag, biotinylated; test: ECL; biotinylated hIgA with integrin αvβ3 (competitor), ratio to the no-antigen well
[12] = biological target: T2, human IgA-Fc with AviTag, biotinylated; test: ECL; hIgA signal without against with CD3ε homodimer protein (competitor)
Cy CD3ε/g = biological target: T5, Cy CD3ε/g; test: cell-ELISA on Ba/F3 cells expressing cynomolgus monkey CD3εγ, hybridoma culture supernatant (CM)
T5 construct: also called cynomolgus monkey CD3εγ on Ba/F3 cells
T5 epsilon: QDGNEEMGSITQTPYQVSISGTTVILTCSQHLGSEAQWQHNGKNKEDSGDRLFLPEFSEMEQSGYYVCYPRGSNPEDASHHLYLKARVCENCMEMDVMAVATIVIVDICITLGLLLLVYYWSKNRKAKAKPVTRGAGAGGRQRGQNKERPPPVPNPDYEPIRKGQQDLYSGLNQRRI
T5 gamma: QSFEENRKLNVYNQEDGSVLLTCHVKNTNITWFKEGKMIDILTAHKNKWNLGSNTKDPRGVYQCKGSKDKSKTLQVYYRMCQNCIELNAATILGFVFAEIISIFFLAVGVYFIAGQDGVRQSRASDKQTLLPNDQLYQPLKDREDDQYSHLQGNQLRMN

hCD3ε/g = biological target: T6, hCD3ε/g; test: cell-ELISA on Ba/F3 cells expressing human CD3εγ, hybridoma culture supernatant (CM)
T6 construct: also called human CD3εγ on Ba/F3 cells

B1: CE115HA340 / GLS3000 one-arm antibody (antibody, human IgG1, kappa, L234A L235A, N297A)
heavy: QVQLVESGGGLVQPGRSLRLSCAASGFTFSNAWMHWVRQAPGKGLEWVAQIKDKSNNYATYYAESVKGRFTISRDDSKNSIYLQMNSLKTEDTAVYYCRYVHYAAYYGVDAWGQGTTVTVSSASTKGPSVFPLAPSSKSTSGGTAALGCLVKDYFPEPVTVSWNSGALTSGVHTFPAVLQSSGLYSLSSVVTVPSSSLGTQTYICNVNHKPSNTKVDKKVEPKSCDKTHTCPPCPAPEAAGGPSVFLFPPKPKDTLMISRTPEVTCVVVDVSHEDPEVKFNWYVDGVEVHNAKTKPREEQYASTYRVVSVLTVLHQDWLNGKEYKCKVSNKALPAPIEKTISKAKGQPREPQVYTLPPSRCELTKNQVSLSCAVKGFYPSDIAVEWESNGQPENNYKTTPPVLDSDGSFFLVSKLTVDKSRWQQGNVFSCSVMHEALHNHYTQKSLSLSPDYKDDDDK
chain: EPKSSDKTHTCPPCPAPELLGGPSVFLFPPKPKDTLMISRTPEVTCVVVDVSHEDPEVKFNWYVDGVEVHNAKTKPREEQYNSTYRVVSVLTVLHQDWLNGKEYKCKVSNKALPAPIEKTISKAKGQPREPQVCTLPPSRDELTKNQVSLWCLVKGFYPSDIAVEWESNGQPENNYKTTPPVLDSDGSFFLYSKLTVDKSRWQQGNVFSCSVMHEALHNRYTQKSLSLSP
light: DIVMTQSPLSLPVTPGEPASISCRSSQSLVHSNRNTYLHWYQQKPGQAPRLLIYKVSNRFSGVPDRFSGSGSGTDFTLKISRVEAEDVGVYYCGQGTQVPYTFGQGTKLEIKRTVAAPSVFIFPPSDEQLKSGTASVVCLLNNFYPREAKVQWKVDNALQSGNSQESVTEQDSKDSTYSLSSTLTLSKADYEKHKVYACEVTHQGLSSPVTKSFNRGEC
notes: one-arm antibody
Kd (CD3ε homodimer protein [1]): 27 nM | Kd (CD3ε homodimer protein [2]): 20 nM

B2: IGAR6(2)B02H1 (antibody, human IgG1, kappa, L234A L235A, N297A)
heavy: QVQLVESGGGLVQPGRSLRLSCAASGFTFSNAWMHWVRQAPGKGLEWVAQIKDKGQQYAAYYAPSVKGRFTISRDGCRGDCLDSKNSIYLQMNSLKTEDTAVYYCRYVHYQTYSDGSFYFGVDAWGQGTTVTVSSASTKGPSVFPLAPSSKSTSGGTAALGCLVKDYFPEPVTVSWNSGALTSGVHTFPAVLQSSGLYSLSSVVTVPSSSLGTQTYICNVNHKPSNTKVDKKVEPKSCDKTHTCPPCPAPEAAGGPSVFLFPPKPKDTLMISRTPEVTCVVVDVSHEDPEVKFNWYVDGVEVHNAKTKPREEQYASTYRVVSVLTVLHQDWLNGKEYKCKVSNKALPAPIEKTISKAKGQPREPQVYTLPPSRCELTKNQVSLSCAVKGFYPSDIAVEWESNGQPENNYKTTPPVLDSDGSFFLVSKLTVDKSRWQQGNVFSCSVMHEALHNHYTQKSLSLSPDYKDDDDK
chain: EPKSSDKTHTCPPCPAPELLGGPSVFLFPPKPKDTLMISRTPEVTCVVVDVSHEDPEVKFNWYVDGVEVHNAKTKPREEQYNSTYRVVSVLTVLHQDWLNGKEYKCKVSNKALPAPIEKTISKAKGQPREPQVCTLPPSRDELTKNQVSLWCLVKGFYPSDIAVEWESNGQPENNYKTTPPVLDSDGSFFLYSKLTVDKSRWQQGNVFSCSVMHEALHNRYTQKSLSLSP
light: DIVMTQSPLSLPVTPGEPASISCRSSQSLVHSNRNTYLHWYQQKPGQAPRLLIYKVSNRFSGVPDRFSGSGSGTDFTLKISRVEAEDVGVYYCGQGTQVPYTFGQGTKLEIKRTVAAPSVFIFPPSDEQLKSGTASVVCLLNNFYPREAKVQWKVDNALQSGNSQESVTEQDSKDSTYSLSSTLTLSKADYEKHKVYACEVTHQGLSSPVTKSFNRGEC
notes: One-arm antibody
Value as compared with antigen-free well [3]: 8 fold | Value as compared with integrin αvβ3-free well [4]: 185 fold | Value as compared with antigen-free well [5]: 3.9 fold | Amount of binding to hIgA attenuated by integrin αvβ3 [6]: 2.5 fold | Value as compared with antigen-free well [7]: 1 fold | Amount of binding to integrin αvβ3 attenuated by CD3 [8]: 2.4 fold | Value as compared with antigen-free well [9]: 1410 fold | Value as compared with integrin αvβ3-free well [10]: 438 fold | Value as compared with antigen-free well [11]: 1.6 fold | Amount of binding to hIgA attenuated by CD3 [12]: 7.4 fold

B3: CE#115 (antibody, V domains shown)
VH: EVQLVETGGSLVQPGKSLKLTCATSGFTFSNAWMHWVRQSPEKQLEWVAQIKAKSNNYATYYAESVKGRFTISRDDSKSNIYLQMNSLKEEDTAVYYCRYVHYGAYYGVDAWGQGTSVTVSS
VL: DVVMTQTPVSMSVSLGGQVSISCRSSQSLVHNNGNTYVSWYIQKPSQSPQLLIYKVSNRFSGISDRFSGSGSGTDFTLKISRVEPDDLGVYYCGQGTQDPYTFGAGTKLELK
notes: also called CE115, rat hybridoma culture supernatant
binding result (Cy CD3ε/g): binds | binding result (hCD3ε/g): binds
